The target in test [1] is B7 Ig fusion protein (human) [IgG part: P01857]. Nature of the test: solid phase competition: 125I-B7 Ig binding to immobilized CTLA4 Ig.
Test [2] concerns the target B7 antigen (B7/BB-1, B7-1) on the cell surface (human) (UniProt P33681). Nature of the test: cell-based or functional assay.
The next test deals with T1, B7 Ig fusion protein (human, UniProt P01857-1 99-330 = IgG part, limits assumed, 125I label in the solid phase binding assays).
T1 construct: domain: hinge, CH2 and CH3 regions; Made as in Linsley et al. 1991; also called B7IgCγ1
In words: FACS, indirect immunostaining of transfected COS cells. Background: Flow cytometry measures light scatter and fluorescence of single cells or particles in a stream.

Broadly, the IC50 is the concentration that gives 50% inhibition. A higher IC50 goes with weaker potency.

Take “murine monoclonal antibody BB-1 (anti-B7 antigen)”: in test [1], the IC50 stood at 22 nM. This molecule registered an inhibition of Th-induced IgM production in test [2] of 65%.

B1: CD7 expressed on transfected COS cells (receptor, UniProt P09564 26-240, looked up)
chain: AQEVQQSPHCTTVPVGASVNITCSTSGGLRGIYLRQLGPQPQDIIYYEDGVVPTTDRRFRGRIDFSGSQDNLTITMHRLQLSDTGTYTCQAITEVNVYGSGTLVLVTEEQSQGWHRCSDAPPRASALPAPPTGSALPDPQTASALPDPPAASALPAALAVISFLLGLGLGVACVLARTQIKKLCSWRDKNSAACVVYEDMSHSRCNTLSSPNQYQ
notes: whole, on cells; Control transfectant; also called CD7-transfected COS cells
In the case of B1, the binding result with B7 Ig fusion protein is given as “no binding (tested: 10 µg/ml)”.

The values are drawn from patent US6887471.
